Assay results: US20250019454A1 (BIOCYTOGEN PHARMACEUTICALS BEIJING, published 2025)

What was measured:
[1] = molecular target: T1, ΔCRD3-TNFR2 protein (with CRD3 deletion), on CHO-S cells (human, UniProt P20333 23-461); test: FACS on CHO-S cells with ΔCRD3-TNFR2
T1 construct: also called CHO-SΔCRD3-TNFR2; TNFR2 lacking CRD3
T1 sequence: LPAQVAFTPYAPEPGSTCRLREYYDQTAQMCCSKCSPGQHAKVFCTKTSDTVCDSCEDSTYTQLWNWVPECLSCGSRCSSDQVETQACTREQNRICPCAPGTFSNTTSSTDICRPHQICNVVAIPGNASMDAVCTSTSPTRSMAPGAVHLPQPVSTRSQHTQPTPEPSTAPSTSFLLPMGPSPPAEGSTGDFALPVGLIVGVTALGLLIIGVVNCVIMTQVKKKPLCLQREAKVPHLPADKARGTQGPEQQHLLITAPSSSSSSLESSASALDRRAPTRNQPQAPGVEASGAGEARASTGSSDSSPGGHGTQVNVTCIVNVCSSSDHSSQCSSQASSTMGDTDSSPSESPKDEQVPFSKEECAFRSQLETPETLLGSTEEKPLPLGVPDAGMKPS
Excerpt: (§1) TNFR2 has four cysteine rich domains (CRD). In another experiment, FACS was used to detect the binding of anti-hTNFR2 antibodies to TNFR2 proteins with different structural domains. Secondary antibody (Alexa Fluor® 647 AffiniPure F(ab′) 2 Fragment Goat Anti-Human IgG, Fcγ fragment specific, Jackson ImmunoResearch Laboratories, Inc., Cat #: 151524) was used. The fluorescence-labeled secondary antibody can attach to the Fc region of the anti-hTNFR2 antibodies so that the anti-hTNFR2 antibodies that are bound to the ΔCRD cells can be detected by FACS. Specifically, ΔCRD1-TNFR2 protein (with CRD1 deleteion), ΔCRD2-TNFR2 protein (with CRD2 deleteion), ΔCRD3-TNFR2 protein (with CRD3 deleteion) or ΔCRD4-TNFR2 protein (with CRD4 deleteion) were expressed in CHO-S cells respectively, and then the binding between the cells and different anti-hTNFR2 antibodies was detected.

[2] = molecular target: T2, ΔCRD2-TNFR2 protein (with CRD2 deletion), on CHO-S cells (human, UniProt P20333 23-461); test: FACS on CHO-S cells with ΔCRD2-TNFR2, AF647 anti-human IgG Fc secondary
T2 construct: also called CHO-SΔCRD2-TNFR2
T2 sequence: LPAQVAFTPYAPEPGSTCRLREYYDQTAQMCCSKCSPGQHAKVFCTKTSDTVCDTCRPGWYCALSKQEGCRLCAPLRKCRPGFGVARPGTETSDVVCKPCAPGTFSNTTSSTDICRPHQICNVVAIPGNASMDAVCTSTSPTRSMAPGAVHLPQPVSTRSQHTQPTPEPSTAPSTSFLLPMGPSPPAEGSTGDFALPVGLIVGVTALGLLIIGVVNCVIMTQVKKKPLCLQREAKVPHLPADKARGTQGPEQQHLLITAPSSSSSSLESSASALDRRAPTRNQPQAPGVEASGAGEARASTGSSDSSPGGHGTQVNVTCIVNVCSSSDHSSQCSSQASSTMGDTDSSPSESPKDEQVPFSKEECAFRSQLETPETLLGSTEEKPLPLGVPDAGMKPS
Excerpt: as §1

[3] = molecular target: T3, ΔCRD4-TNFR2 protein (with CRD4 deletion), on CHO-S cells (human, UniProt P20333 23-461); test: FACS on CHO-S cells with ΔCRD4-TNFR2
T3 construct: also called CHO-SΔCRD4-TNFR2; TNFR2 lacking CRD4
T3 sequence: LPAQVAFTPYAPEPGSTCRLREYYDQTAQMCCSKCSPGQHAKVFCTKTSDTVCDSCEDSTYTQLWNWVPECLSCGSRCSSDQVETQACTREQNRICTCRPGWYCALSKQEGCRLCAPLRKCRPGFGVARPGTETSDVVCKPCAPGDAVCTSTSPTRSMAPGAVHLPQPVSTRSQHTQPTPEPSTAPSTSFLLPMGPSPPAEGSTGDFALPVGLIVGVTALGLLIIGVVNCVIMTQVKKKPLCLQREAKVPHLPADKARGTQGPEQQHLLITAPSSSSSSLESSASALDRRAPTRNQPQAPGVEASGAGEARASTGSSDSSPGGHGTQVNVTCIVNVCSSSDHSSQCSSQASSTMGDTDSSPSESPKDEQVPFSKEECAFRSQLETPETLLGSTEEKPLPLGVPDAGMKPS
Excerpt: as §1

[4] = molecular target: T4, ΔCRD1-TNFR2 protein (with CRD1 deletion), on CHO-S cells (human, UniProt P20333 23-461); test: FACS on CHO-S cells with ΔCRD1-TNFR2, AF647 anti-human IgG Fc secondary
T4 construct: also called CHO-SΔCRD1-TNFR2
T4 sequence: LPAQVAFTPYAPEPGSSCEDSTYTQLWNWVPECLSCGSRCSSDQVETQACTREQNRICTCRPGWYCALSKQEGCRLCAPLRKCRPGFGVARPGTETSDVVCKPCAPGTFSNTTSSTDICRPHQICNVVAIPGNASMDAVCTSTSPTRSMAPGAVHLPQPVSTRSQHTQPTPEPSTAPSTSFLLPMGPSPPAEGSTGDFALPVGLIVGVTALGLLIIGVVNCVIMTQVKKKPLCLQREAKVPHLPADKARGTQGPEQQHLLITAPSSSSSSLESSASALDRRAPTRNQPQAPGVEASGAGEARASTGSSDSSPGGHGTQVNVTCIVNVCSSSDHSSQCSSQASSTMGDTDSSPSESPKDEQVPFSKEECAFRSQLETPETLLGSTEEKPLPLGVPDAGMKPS
Excerpt: as §1

[5] = molecular target: T3, ΔCRD4-TNFR2 protein (with CRD4 …); test: FACS on CHO-S cells with ΔCRD4-TNFR2, AF647 anti-human IgG Fc secondary
Excerpt: as §1

[6] = molecular target: T1, ΔCRD3-TNFR2 protein (with CRD3 …); test: FACS on CHO-S cells with ΔCRD3-TNFR2, AF647 anti-human IgG Fc secondary
Excerpt: as §1

B1: BC-1B6-IgG1-LALA (antibody, V domains shown)
VH: QVQLVESGGGVVQPGRSLRLSCAASGFTFSNFGMHWVRQAPGKGLEWVAVIWYEGSDKYYADSVKGRFTISRDNSKNTLYLQMNSLRAEDTAVYYCARDSSWGFLLYGMDVWGQGTTVTVSS
VL: DVVMTQSPLSLPVTLGQPASISCRSSRSLEYSDGNTYLNWFQQRPGQSPRRLIYKVSNRDSGVPDRFSGSGSGTAFTLKISGVEAEDVGVYYCMQGTHWPPTFGGGTKVEIK
binding result [1]: no binding | positive rate of binding (% of cells) [2]: 75.6% | binding result [3]: no binding | positive rate of binding (% of cells) [4]: 66.5% | positive rate of binding (% of cells) [5]: 0.83% | positive rate of binding (% of cells) [6]: 0.44%
